Literature values in article PMC7915401.
Like-named read-outs stand apart in the source and are kept apart here.

Experiments:
[1] = molecular target: CD200R1 (Homo sapiens) (UniProt Q8TD46)
[2] = molecular target: CD200R1 (Homo sapiens) (UniProt Q8TD46); remark: listed apart in the source

UniProt Q8TD46, sequence (Q8TD46 25-265): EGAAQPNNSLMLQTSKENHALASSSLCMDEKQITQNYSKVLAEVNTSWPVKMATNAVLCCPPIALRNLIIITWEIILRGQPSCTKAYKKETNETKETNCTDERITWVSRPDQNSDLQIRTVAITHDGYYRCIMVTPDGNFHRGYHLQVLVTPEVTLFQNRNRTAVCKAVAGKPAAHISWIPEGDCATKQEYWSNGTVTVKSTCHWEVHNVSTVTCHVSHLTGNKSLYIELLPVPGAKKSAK

Row | Substance | Kd [1] [nM] | Kd [2] [nM]
1 | K14 (vOX2) (from UniProt P0C788) | 500 | 
2 | CD200 (from UniProt P41217) |  | 500
